Reference: PMC314469, “Protein Interaction Networks by Proteome Peptide Scanning” (PLoS Biology, 2004)

T1: Myo5 SH3 (MYO5_YEAST), Q04439
T1 chain: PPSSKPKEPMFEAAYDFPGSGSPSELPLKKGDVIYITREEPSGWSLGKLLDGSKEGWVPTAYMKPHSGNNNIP


Biological target: T1, Myo5 SH3 (MYO5_YEAST), Q04439
Assay: SPOT array

Row | Binder | normalised SPOT signal, Boehringer light units (BLU); mean over the file's lines of this peptide
1 | HAWDMRSPHRPFYS [YDR128W 140-153] | 822
2 | GLRWYRSPIYPYLY [YEL050C 102-115] | 468
3 | GWPVYNYPMQPTTE [YER109C 286-299] | 168
4 | IEFDLSKPFTPFQQ [YGL173C 578-591] | 134
5 | HPHPHPHPHTPTHT [YHR217C 23-36] | 238
6 | GLIAHQGPQFPVMG [YKL204W 458-471] | 238
7 | ILTLLKMPEVPNSV [YDR395W 823-836] | 172
8 | HPEYLSLPFEPYSF [YLR054C 108-121] | 213
9 | GPLLLTVPELPEAD [YLR338W 178-191] | 162
10 | GLIGMNDPPRPNVK [YGL167C 574-587] | 116
11 | IEPDFIEPDAPLAA [YGL198W 10-23] | 61.4
12 | ILHQLGAPSIPENL [YBL004W 2280-2293] | 174
13 | HPYMMVYPMSPPPP [YHL024W 649-662] | 563
14 | ILSAYNSPKVPADI [YGR175C 270-283] | 81.4
15 | GWSTYIPPFNPLEI [YNL088W 836-849] | 114
16 | HEYNLALPKFPILF [YMR088C 27-40] | 147
17 | HFLSLDPPIDPNNL [YMR075W 283-296] | 122
18 | HEHNYAIPYTPATF [YBR238C 43-56] | 129
19 | IEITHSEPAIPYRE [YNL163C 742-755] | 114
20 | HLTDLSPPGTPPTM [YMR165C 272-285] | 261
21 | GWVVYPPPPKPSYN [YML035C 223-236] | 453
22 | ILVAYGLPVSPDEK [YDR127W 327-340] | 167
23 | GPSQFAPPPPPPGV [YCR077C 189-202] | 20400
24 | HLFHLTTPQDPRLL [YKL191W 249-262] | 246
25 | IEEGHLDPEAPDKL [YOR301W 105-118] | 84.8

The next lines start with the values.

Row | normalised SPOT signal, Boehringer light units (BLU); mean over the file's lines of this peptide | Binder
26 | 503 | IFFKLIHPFLPILH [YIR023W 322-335]
27 | 112 | HFLAYTNPRAPGKL [YIL054W 29-42]
28 | 21.6 | ILPVLNIPLPPQEK [YER132C 923-936]
29 | 204 | IARSFTIPFLPKIP [YLR164W 20-33]
30 | 255 | IAGMLMVPESPRFL [YMR011W 241-254]
31 | 87.4 | GPEFWISPDTPLKF [YJL093C 632-645]
32 | 152 | HFYEYVYPSLPFIE [YAL051W 349-362]
33 | 150 | GLLTYKGPKVPYQK [YHR028C 497-510]
34 | 21.6 | GLLLLFVPDSPYDP [YLR106C 2903-2916]
35 | 205 | GPIIHPGPEPPRYD [YPR030W 1104-1117]
36 | 75.9 | GWEPFSLPKDPKVV [YML018C 282-295]
37 | 318 | HPIHLQPPVPPVYK [YOR032C 88-101]
38 | 247 | IAKPYVLPFFPLYA [YEL031W 24-37]
39 | 383 | IARPLSVPGSPKVR [YFR015C 646-659]
40 | 1370 | ILIFLWIPDDPSKA [YJR152W 263-276]
41 | 457 | HPSGLNSPKLPPLP [YNL152W 370-383]
42 | 151 | HATLYWAPVSPLKS [YLR305C 1420-1433]

Row | normalised SPOT signal, Boehringer light units (BLU); mean over the file's lines of this peptide | Binder
43 | 166 | ILVPHLDPIDPWEA [YJR111C 130-143]
44 | 279 | HLARYIFPPNPVFH [YBR007C 426-439]
45 | 118 | HLVVWNPPILPQHE [YDR291W 495-508]
46 | 160 | GLRELFLPGMPGLM [YPL249C 557-570]
47 | 51.9 | ILQELSLPSRPVMP [YGR002C 427-440]
48 | 78.1 | HEKLYHNPSLPAQS [YKL217W 53-66]
49 | 180 | IERVWNGPVEPSDE [YIL067C 73-86]
50 | 228 | HAVLLNPPVAPTAE [YPL012W 184-197]
51 | 96.9 | IATMYPIPAYPDLL [YJL127C 53-66]
52 | 384 | IEVPMEYPFKPPKM [YDR177W 56-69]
53 | 240 | IFQSLLHPELPIII [YPR169W 50-63]
54 | 143 | IAESLGVPWEPVDL [YGR088W 547-560]
55 | 121 | HLDSFSPPFSPSTT [YPL230W 298-311]
56 | 200 | ILQILFEPMPPFNS [YBL037W 656-669]
57 | 325 | HAEAFEDPSIPRIS [YGL195W 985-998]
58 | 92.5 | HFNDLQSPAQPQQS [YMR164C 264-277]
